Assays:
baboon factor XI = baboon factor XI (baboon (Papio anubis)); assay: cell-based or functional assay
human factor XI = target: T1, human factor XI (human, UniProt P03951 19-625); assay: Western blot of plasma
T1 construct: Disulfide-bonded homodimer of about 160 kDa; also called FXI; human FXI

Prekallikrein (PK) = Prekallikrein (PK) (UniProt P03952 20-638, limits assumed); assay: Western blot
Chain of Prekallikrein (PK) (P03952 20-638 limits assumed): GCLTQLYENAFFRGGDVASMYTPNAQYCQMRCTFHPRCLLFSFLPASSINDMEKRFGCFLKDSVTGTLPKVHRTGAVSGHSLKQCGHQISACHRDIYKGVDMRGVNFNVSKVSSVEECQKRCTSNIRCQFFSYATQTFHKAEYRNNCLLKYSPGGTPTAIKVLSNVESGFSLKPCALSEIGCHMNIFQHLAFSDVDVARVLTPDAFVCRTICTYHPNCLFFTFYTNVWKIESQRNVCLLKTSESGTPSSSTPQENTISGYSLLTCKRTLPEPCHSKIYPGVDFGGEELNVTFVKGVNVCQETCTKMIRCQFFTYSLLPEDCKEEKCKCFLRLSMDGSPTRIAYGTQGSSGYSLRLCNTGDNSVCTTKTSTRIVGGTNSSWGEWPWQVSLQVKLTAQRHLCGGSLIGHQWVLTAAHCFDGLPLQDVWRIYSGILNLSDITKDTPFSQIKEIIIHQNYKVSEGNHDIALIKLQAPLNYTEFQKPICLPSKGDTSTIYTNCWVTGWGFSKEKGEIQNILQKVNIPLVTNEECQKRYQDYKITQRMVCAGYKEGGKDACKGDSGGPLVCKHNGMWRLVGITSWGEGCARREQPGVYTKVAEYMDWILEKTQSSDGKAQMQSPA

T1 sequence (P03951 19-625 I95Y limits assumed): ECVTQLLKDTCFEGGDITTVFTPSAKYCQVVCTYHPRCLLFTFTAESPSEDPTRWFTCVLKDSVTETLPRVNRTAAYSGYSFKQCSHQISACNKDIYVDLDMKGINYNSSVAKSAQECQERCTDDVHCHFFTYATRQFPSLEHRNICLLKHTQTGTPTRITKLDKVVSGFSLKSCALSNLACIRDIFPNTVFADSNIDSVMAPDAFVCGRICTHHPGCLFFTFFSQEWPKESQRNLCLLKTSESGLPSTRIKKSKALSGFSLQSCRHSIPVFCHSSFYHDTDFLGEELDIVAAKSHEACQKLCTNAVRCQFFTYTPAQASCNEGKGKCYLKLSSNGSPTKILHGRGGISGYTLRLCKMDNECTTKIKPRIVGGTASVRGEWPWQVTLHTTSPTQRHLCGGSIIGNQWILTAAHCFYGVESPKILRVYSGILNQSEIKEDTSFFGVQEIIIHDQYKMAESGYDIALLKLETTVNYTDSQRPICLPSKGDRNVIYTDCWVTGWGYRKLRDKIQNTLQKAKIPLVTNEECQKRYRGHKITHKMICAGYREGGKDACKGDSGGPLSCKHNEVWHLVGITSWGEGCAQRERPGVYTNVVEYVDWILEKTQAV

IC50 in a clotting assay using FXI deficient human plasma with serial dilutions of NBP as standards (baboon factor XI): 2.5 nM
binding result (human factor XI): binds
binding result (Prekallikrein (PK)): no binding
B1: anti-factor XI monoclonal antibody 1A6 (aXIMab) (antibody, V domains shown)
VH: QVTLKESGPGILKPSQTLSLTCSFSGFSLSTSGMGVGWIRQPSGKGLEWLAHIWWDDDKYYNPSLKSQLTISKDTSRNQVFLKITSVDAADTATYYCARKRSSVVAHYYAMDYWGQGTSVTVSS
VL: DIVLTQSPASLAVSLGQRATISCKASQSVDYDGDSYLNWYQQKPGQPPKLLIYAASNLESGIPARFSGSGSGTDFTLNIHPVEEEDAATYYCQQSNGDPWTFGGGTKLEIK
notes: also called anti-FXI monoclonal antibody
